Patent US20260078341A1, “TREATMENT OF CANCER USING CHIMERIC ANTIGEN RECEPTOR” (Novartis AG, priority 2014, published 2026)

Target: Folate receptor alpha on cells (SKOV3, A1847, T47D; low levels on 293T and IOSE6) (human) (UniProt P15328)
Assay: cell-based or functional assay

Sequence of Folate receptor alpha on cells (SKOV3, A1847, T47D; low levels on 293T and IOSE6) (human) (P15328 25-234, stated change not applied): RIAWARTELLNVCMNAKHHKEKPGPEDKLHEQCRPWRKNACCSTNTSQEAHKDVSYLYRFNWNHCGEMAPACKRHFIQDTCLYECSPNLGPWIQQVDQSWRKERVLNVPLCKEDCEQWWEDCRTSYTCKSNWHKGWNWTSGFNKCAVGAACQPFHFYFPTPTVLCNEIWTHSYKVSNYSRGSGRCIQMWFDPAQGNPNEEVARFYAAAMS

- frequency of T cells with surface CAR before exposure to SKOV3 tumor cells: 65 % of T cells
- frequency of T cells with surface CAR five hours after exposure to SKOV3 tumor cells: 1 % of T cells
Substance: MOv19-27z CAR (murine anti-human FRA MOv19 CAR)
